# In the supplement of paper PMC11246515:
# ± gives the standard deviation of the averaged measurements.
# Test: total protein half-life in vivo (active degradation + dilution); higher = more stable protein
# [1] = E. coli NCM3722 delta-clpP delta-lon delta-hslV, growth: N-lim chemostat, doubling time 6 h
# [2] = E. coli NCM3722 delta-clpP, growth: N-lim chemostat, doubling time 6 h
# [3] = E. coli NCM3722 delta-hslV, growth: N-lim chemostat, doubling time 6 h
# [4] = E. coli NCM3722 delta-lon, growth: N-lim chemostat, doubling time 6 h
# [5] = E. coli NCM3722 delta-smpB, growth: N-lim chemostat, doubling time 6 h
# [6] = wild type E. coli NCM3722, growth: C-lim chemostat, doubling time 3 h
# [7] = wild type E. coli NCM3722, growth: C-lim chemostat, doubling time 6 h
# [8] = wild type E. coli NCM3722, growth: C-lim chemostat, doubling time 12 h
# [9] = wild type E. coli NCM3722, growth: N-lim chemostat, doubling time 6 h
# [10] = wild type E. coli NCM3722, growth: N-lim chemostat, doubling time 12 h
# [11] = wild type E. coli NCM3722, growth: P-lim chemostat, doubling time 6 h
# [12] = wild type E. coli NCM3722, growth: P-lim chemostat, doubling time 12 h
Sequence,total protein half-life in vivo [1] [h],total protein half-life in vivo [2] [h],total protein half-life in vivo [3] [h],total protein half-life in vivo [4] [h],total protein half-life in vivo [5] [h],total protein half-life in vivo [6] [h],total protein half-life in vivo [7] [h],total protein half-life in vivo [8] [h],total protein half-life in vivo [9] [h],total protein half-life in vivo [10] [h],total protein half-life in vivo [11] [h],total protein half-life in vivo [12] [h]
MKLAVYSTKQYDKKYLQQVNESFGFELEFFDFLLTEKTAKTANGCEAVCIFVNDDGSRPVLEELKKHGVKYIALRCAGFNNVDLDAAKELGLKVVRVPAYDPEAVAEHAIGMMMTLNRRIHRAYQRTRDANFSLEGLTGFTMYGKTAGVIGTGKIGVAMLRILKGFGMRLLAFDPYPSAAALELGVEYVDLPTLFSESDVISLHCPLTPENYHLLNEAAFEQMKNGVMIVNTSRGALIDSQAAIEALKNQKIGSLGMDVYENERDLFFEDKSNDVIQDDVFRRLSACHNVLFTGHQAFLTAEALTSISQTTLQNLSNLEKGETCPNELV,4.95 ± 0.5,5.65 ± 1.9,4.53 ± 0.051,5.26 ± 0.41,4.57 ± 0.16,3.08 ± 0.3,5.97 ± 0.49,11.3 ± 0.19,4.64 ± 0.38,7.53 ± 0.61,5.67 ± 0.38,12.3 ± 0.16
MSKQQIGVVGMAVMGRNLALNIESRGYTVSIFNRSREKTEEVIAENPGKKLVPYYTVKEFVESLETPRRILLMVKAGAGTDAAIDSLKPYLDKGDIIIDGGNTFFQDTIRRNRELSAEGFNFIGTGVSGGEEGALKGPSIMPGGQKEAYELVAPILTKIAAVAEDGEPCVTYIGADGAGHYVKMVHNGIEYGDMQLIAEAYSLLKGGLNLTNEELAQTFTEWNNGELSSYLIDITKDIFTKKDEDGNYLVDVILDEAANKGTGKWTSQSALDLGEPLSLITESVFARYISSLKDQRVAASKVLSGPQAQPAGDKAEFIEKVRRALYLGKIVSYAQGFSQLRAASEEYNWDLNYGEIAKIFRAGCIIRAQFLQKITDAYAENPQIANLLLAPYFKQIADDYQQALRDVVAYAVQNGIPVPTFSAAVAYYDSYRAAVLPANLIQAQRDYFGAHTYKRIDKEGVFHTEWLD,5.22 ± 0.18,4.9 ± 0.45,5 ± 0.17,5.58 ± 0.25,4.68 ± 0.083,3.21 ± 0.06,5.85 ± 0.4,10 ± 0.24,4.73 ± 0.23,8.31 ± 0.24,6.054 ± 0.042,12.9 ± 1.8
MRLFAQLSWYFRREWRRYLGAVALLVIIAMLQLVPPKVVGIVVDGVTEQHFTTGQILMWIATMVLIAVVVYLLRYVWRVLLFGASYQLAVELREDYYRQLSRQHPEFYLRHRTGDLMARATNDVDRVVFAAGEGVLTLVDSLVMGCAVLIMMSTQISWQLTLFSLLPMPVMAIMIKRNGDALHERFKLAQAAFSSLNDRTQESLTSIRMIKAFGLEDRQSALFAADAEDTGKKNMRVARIDARFDPTIYIAIGMANLLAIGGGSWMVVQGSLTLGQLTSFMMYLGLMIWPMLALAWMFNIVERGSAAYSRIRAMLAEAPVVNDGSEPVPEGRGELDVNIHQFTYPQTDHPALENVNFALKPGQMLGICGPTGSGKSTLLSLIQRHFDVSEGDIRFHDIPLTKLQLDSWRSRLAVVSQTPFLFSDTVANNIALGCPNATQQEIEHVARLASVHDDILRLPQGYDTEVGERGVMLSGGQKQRISIARALLVNAEILILDDALSAVDGRTEHQILHNLRQWGQGRTVIISAHRLSALTEASEIIVMQHGHIAQRGNHDVLAQQSGWYRDMYRYQQLEAALDDAPENREEAVDA,6.33 ± 0.2,6.624 ± 0.017,5.58 ± 1.5,4.42 ± 0.37,4.26 ± 0.096,,4.99 ± 0.061,11.1 ± 1.6,4.77 ± 0.67,7.121 ± 0.033,6.08 ± 0.52,11.6 ± 3.3
MIVRILLLFIALFTFGVQAQAIKESYAFAVLGEPRYAFNFNHFDYVNPAAPKGGQITLSALGTFDNFNRYALRGNPGARTEQLYDTLFTTSDDEPGSYYPLIAESARYADDYSWVEVAINPRARFHDGSPITARDVEFTFQKFMTEGVPQFRLVYKGTTVKAIAPLTVRIELAKPGKEDMLSLFSLPVFPEKYWKDHKLSDPLATPPLASGPYRVTSWKMGQNIVYSRVKDYWAANLPVNRGRWNFDTIRYDYYLDDNVAFEAFKAGAFDLRMENDAKNWATRYTGKNFDKKYIIKDEQKNESAQDTRWLAFNIQRPVFSDRRVREAITLAFDFEWMNKALFYNAWSRTNSYFQNTEYAARNYPDAAELVLLAPMKKDLPSEVFTQIYQPPVSKGDGYDRDNLLKADKLLNEAGWVLKGQQRVNATTGQPLSFELLLPASSNSQWVLPFQHSLQRLGINMDIRKVDNSQITNRMRSRDYDMMPRVWRAMPWPSSDLQISWSSEYINSTYNAPGVQSPVIDSLINQIIAAQGNKEKLLPLGRALDRVLTWNYYMLPMWYMAEDRLAWWDKFSQPAVRPIYSLGIDTWWYDVNKAAKLPSASKQGE,6.04 ± 0.17,6.38 ± 1.6,5.79 ± 0.79,,5.92 ± 0.24,3.0824 ± 5.7e-05,6.076 ± 0.038,13.3 ± 2.8,6.19 ± 0.39,12.8 ± 0.89,6.46 ± 0.14,12 ± 1.5
MKVTLPEFERAGVMVVGDVMLDRYWYGPTSRISPEAPVPVVKVNTIEERPGGAANVAMNIASLGANARLVGLTGIDDAARALSKSLADVNVKCDFVSVPTHPTITKLRVLSRNQQLIRLDFEEGFEGVDPQPLHERINQALSSIGALVLSDYAKGALASVQQMIQLARKAGVPVLIDPKGTDFERYRGATLLTPNLSEFEAVVGKCKTEEEIVERGMKLIADYELSALLVTRSEQGMSLLQPGKAPLHMPTQAQEVYDVTGAGDTVIGVLAATLAAGNSLEEACFFANAAAGVVVGKLGTSTVSPIELENAVRGRADTGFGVMTEEELKLAVAAARKRGEKVVMTNGVFDILHAGHVSYLANARKLGDRLIVAVNSDASTKRLKGDSRPVNPLEQRMIVLGALEAVDWVVSFEEDTPQRLIAGILPDLLVKGGDYKPEEIAGSKEVWANGGEVLVLNFEDGCSTTNIIKKIQQDKKG,5.6 ± 0.12,5.98 ± 1.2,5.19 ± 0.094,5.89 ± 0.14,5.15 ± 0.11,3.1 ± 0.062,5.74 ± 0.21,11.032 ± 0.011,5.3 ± 0.34,9.17 ± 0.1,5.82 ± 0.12,12.3 ± 0.15
MEKDYLRISSTVLVSLLFGLALVLVNSWFNQPGVEEVVPRSTYLMVMIALFFIDTVAFIFMQLYFIYDRRQFSNCVLSLAFLSCLIYFVITVIIIQQIIEERLTSSVVQNDIAIYYLFRQMSLCILIFLALVNKVSENTKQRNLFSKKMTLCISLFFVFGGPIVAHILSSHYESYNLHIAELTNENGQVVWKASYVTIMIFMWLTLLSVNLYFNGLRYDIWNGVTVIAFCAVLYNISLLFMSRYSVSTWYISRTIEVVSKLTVMVIFMCHIFSALRVTKNIAHRDPLTNIFNRNYFFNELTVQSASAQKTPYCVMIMDIDHFKKVNDTWGHPVGDQVIKTVVNIIGKSIRPDDLLARVGGEEFGVLLTDIDTERAKALAERIRENVERLTGDNPEYAIPQKVTISIGAVVTQENALNPNEIYRLADNALYEAKETGRNKVVVRDVVNFCESP,,,,,,2.9,,,,,,
MMSQPAKVLLLYAHPESQDSVANRVLLKPATQLSNVTVHDLYAHYPDFFIDIPREQALLREHEVIVFQHPLYTYSCPALLKEWLDRVLSRGFASGPGGNQLAGKYWRSVITTGEPESAYRYDALNRYPMSDVLRPFELAAGMCRMHWLSPIIIYWARRQSAQELASHARAYGDWLANPLSPGGR [P0A756],5.94 ± 0.44,5.15 ± 0.59,5.89 ± 0.62,5.99 ± 0.26,5.51 ± 0.33,2.94 ± 0.079,5.7 ± 1.1,10.6 ± 2.5,5.63 ± 0.52,10.74 ± 0.04,5.239 ± 0.0081,10.6 ± 0.47
